Results: the supplement of paper PMC5998384

Assays:
HeLa Kyoto [1] = test: solubility in G1/S (NP-40 vs SDS abundance) (log2 ratio); higher = more soluble; settings: cell cycle stage: G1/S
HeLa Kyoto [2] = test: solubility change mitosis vs G1/S (difference of NP-40 vs SDS log2 ratios) (log2 ratio difference); higher = more soluble in mitosis
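Wherever solubility change mitosis vs G1/S (difference of NP-40 vs SDS log2 ratios) is given: synchronized HeLa Kyoto cells (double thymidine block for G1/S, nocodazole release for mitosis), protein amounts in NP-40 versus SDS lysates quantified by mass spectrometry, three biological replicates.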
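Wherever solubility in G1/S (NP-40 vs SDS abundance) is given: HeLa Kyoto cells arrested at G1/S by double thymidine block, proteins quantified by TMT10plex mass spectrometry in mild NP-40 versus SDS extracts, three biological replicates.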

**Q.** What does the source list for “MPLSSPNAAATASDMDKNSGSNSSSASSGSSKGQQPPRSASAGPAGESKPKSDGKNSSGSKRYNRKRELSYPKNESFNNQSRRSSSQKSKTFNKMPPQRGGGSSKLFSSSFNGGRRDEVAEAQRAEFSPAQFSGPKKINLNHLLNFTFEPRGQTGHFEGSGHGSWGKRNKWGHKPFNKELFLQANCQFVVSEDQDYTAHFADPDTLVNWDFVEQVRICSHEVPSCPICLYPPTAAKITRCGHIFCWACILHYLSLSEKTWSKCPICYSSVHKKDLKSVVATESHQYVVGDTITMQLMKREKGVLVALPKSKWMNVDHPIHLGDEQHSQYSKLLLASKEQVLHRVVLEEKVALEQQLAEEKHTPESCFIEAAIQELKTREEALSGLAGSRREVTGVVAALEQLVLMAPLAKESVFQPRKGVLEYLSAFDEETTEVCSLDTPSRPLALPLVEEEEAVSEPEPEGLPEACDDLELADDNLKEGTICTESSQQEPITKSGFTRLSSSPCYYFYQAEDGQHMFLHPVNVRCLVREYGSLERSPEKISATVVEIAGYSMSEDVRQRHRYLSHLPLTCEFSICELALQPPVVSKETLEMFSDDIEKRKRQRQKKAREERRRERRIEIEENKKQGKYPEVHIPLENLQQFPAFNSYTCSSDSALGPTSTEGHGALSISPLSRSPGSHADFLLTPLSPTASQGSPSFCVGSLEEDSPFPSFAQMLRVGKAKADVWPKTAPKKDENSLVPPAPVDSDGESDNSDRVPVPSFQNSFSQAIEAAFMKLDTPATSDPLSEEKGGKKRKKQKQKLLFSTSVVHTK [RNF10]”?
**A.** solubility in G1/S (log2) (HeLa Kyoto [1]): -0.172; solubility change mitosis (log2) (HeLa Kyoto [2]): -0.000862

**Q.** What does the source list for BCORL1?
**A.** solubility in G1/S (log2) (HeLa Kyoto [1]): -0.267; solubility change mitosis (log2) (HeLa Kyoto [2]): 0.348

**Q.** For PDCD11, which “solubility in G1/S (log2)” value (HeLa Kyoto [1]) is on record?
**A.** -2.88

**Q.** And the “solubility change mitosis (log2)” value (HeLa Kyoto [2])?
**A.** 1.53

**Q.** “MFSAGAESLLHQAREIQDEELKKFCSRICKLLQAEDLGPDTLDSLQRLFLIISATKYSRRLEKTCVDLLQATLGLPACPEQLQVLCAAILREMSPSDSLSLAWDHTQNSRQLSLVASVLLAQGDRNEEVRAVGQGVLRALESRQPEGPSLRHLLPVMAKVVVLSPGTLQEDQATLLSKRLVDWLRYASLQQGLPHSGGFFSTPRARQPGPVTEVDGAVATDFFTVLSSGHRFTDDQWLNVQAFSMLRAWLLHSGPEGPGTLDTDDRSEQEGSTLSVISATSSAGRLLPPRERLREVAFEYCQRLIEQSNRRALRKGDSDLQKACLVEAVLVLDVLCRQDPSFLYRSLSCLKALHGRVRGDPASVRVLLPLAHFFLSHGEAAAVDSEAVYQHLFTRIPVEQFHSPMLAFEFIQFCRDNLHLFSGHLSTLRLSFPNLFKFLAWNSPPLTSEFVALLPALVDAGTALEMLHALLDLPCLTAVLDLQLRSAPAASERPLWDTSLRAPSCLEAFRDPQFQGLFQYLLRPKASGATERLAPLHQLLQPMAGCARVAQCAQAVPTLLQAFFSAVTQVADGSLINQLALLLLGRSDSLYPAPGYAAGVHSVLSSQFLALCTLKPSLVVELARDLLEFLGSVNGLCSRASLVTSVVWAIGEYLSVTYDRRCTVEQINKFFEALEALLFEVTQCRPSAALPRCPPQVVTVLMTTLTKLASRSQDLIPRASLLLSKMRTLAHSPATSSTHSEEGAEAIRTRATELLTLLKMPSVAQFVLTPSTEVCSPRYHRDANTALPLALRTVSRLVEREAGLMPG [AP5Z1]” was tested. Which “solubility in G1/S (log2)” value (HeLa Kyoto [1]) did it give?
**A.** 0.134

**Q.** What about the “solubility change mitosis (log2)” value (HeLa Kyoto [2]) of the same substance?
**A.** -0.0926

**Q.** For “MGSILSRRIAGVEDIDIQANSAYRYPPKSGNYFASHFFMGGEKFDTPHPEGYLFGENMDLNFLGSRPVQFPYVTPAPHEPVKTLRSLVNIRKDSLRLVRYKDDADSPTEDGDKPRVLYSLEFTFDADARVAITIYCQASEEFLNGRAVYSPKSPSLQSETVHYKRGVSQQFSLPSFKIDFSEWKDDELNFDLDRGVFPVVIQAVVDEGDVVEVTGHAHVLLAAFEKHMDGSFSVKPLKQKQIVDRVSYLLQEIYGIENKNNQETKPSDDENSDNSNECVVCLSDLRDTLILPCRHLCLCTSCADTLRYQANNCPICRLPFRALLQIRAVRKKPGALSPVSFSPVLAQSLEHDEHSCPFKKSKPHPASLASKKPKRETNSDSVPPGYEPISLLEALNGLRAVSPAIPSAPLYEEITYSGISDGLSQASCPLAAIDHILDSSRQKGRPQSKAPDSTLRSPSSPIHEEDEEKLSEDVDAPPPLGGAELALRESSSPESFITEEVDESSSPQQGTRAASIENVLQDSSPEHCGRGPPADIYLPALGPDSCSVGIDE [MGRN1]”, which “solubility in G1/S (log2)” value (HeLa Kyoto [1]) is on record?
**A.** -0.00834

**Q.** What about the “solubility change mitosis (log2)” value (HeLa Kyoto [2]) of the same substance?
**A.** 0.156

**Q.** What does the source list for “MKTSPRRPLILKRRRLPLPVQNAPSETSEEEPKRSPAQQESNQAEASKEVAESNSCKFPAGIKIINHPTMPNTQVVAIPNNANIHSIITALTAKGKESGSSGPNKFILISCGGAPTQPPGLRPQTQTSYDAKRTEVTLETLGPKPAARDVNLPRPPGALCEQKRETCADGEAAGCTINNSLSNIQWLRKMSSDGLGSRSIKQEMEEKENCHLEQRQVKVEEPSRPSASWQNSVSERPPYSYMAMIQFAINSTERKRMTLKDIYTWIEDHFPYFKHIAKPGWKNSIRHNLSLHDMFVRETSANGKVSFWTIHPSANRYLTLDQVFKPLDPGSPQLPEHLESQQKRPNPELRRNMTIKTELPLGARRKMKPLLPRVSSYLVPIQFPVNQSLVLQPSVKVPLPLAASLMSSELARHSKRVRIAPKVLLAEEGIAPLSSAGPGKEEKLLFGEGFSPLLPVQTIKEEEIQPGEEMPHLARPIKVESPPLEEWPSPAPSFKEESSHSWEDSSQSPTPRPKKSYSGLRSPTRCVSEMLVIQHRERRERSRSRRKQHLLPPCVDEPELLFSEGPSTSRWAAELPFPADSSDPASQLSYSQEVGGPFKTPIKETLPISSTPSKSVLPRTPESWRLTPPAKVGGLDFSPVQTSQGASDPLPDPLGLMDLSTTPLQSAPPLESPQRLLSSEPLDLISVPFGNSSPSDIDVPKPGSPEPQVSGLAANRSLTEGLVLDTMNDSLSKILLDISFPGLDEDPLGPDNINWSQFIPELQ [FOXM1]”?
**A.** solubility in G1/S (log2) (HeLa Kyoto [1]): 0.114; solubility change mitosis (log2) (HeLa Kyoto [2]): -0.0969
